{
  "source": "paper PMC6888979",
  "about": "(The Journal of Experimental Medicine, 2019)",
  "proteins": {"B1": {"name": "soluble recombinant ectodomain of murine FIBCD1 (mFIBCD1^Ecto) (domain or fragment)", "chain": "NHTHTPGTAPPPIVSTGTAGANSALVTVERADSSHLSLLIDPRCPDLTDSFARLEGIQASILRALSEHQAQPRLDGAPELLDALADQLPRLLTRASELQAECAGLRKGHSLLGQGLSTLQSEQGRLIQLLSESQGHMAHLVNSVSDVLEALQRERGLGRPRVKADLQRAPSRGARPRGCANGSRPRDCLDVLLSGQQDDGVYSIFPTHYPAGFQVYCDMRTDGGGWTVFQRREDGSVNFFRGWEAYREGFGKLTGEHWLGLKRIHALTTQAAYELHVDLEDFDNGTAYAHYGSFGVGLFSVDPEEDGYPLTVADYSGTAGDSLLKHSGMRFTTKDRDSDHSENNCAAFYRGAWWYRNCHTSNLNGQYLRGAHASYADGVEWSSWTGWQYSLKFSEMKIRPVREDR"}},
  "biological_target": "the molecule itself",
  "data": [
    {"protein": "B1", "values": [
      {"measurement": "stoichiometry N", "value": 4}
    ]}
  ]
}
